Publication PMC5003356

The sequences below were run against T1, NLuc-La dR1/R2 internal_change (UniProt P05455) (assay: BRET). Conditions: PS; 5-10-5 (S)-cEt gap-mer; BRET: 1X binding buffer (0.1 M potassium acetate, 20 mM Tris pH 7.5, 1 mM EDTA, 0.01% NP-40), room temperature, 15 min; FP in the same buffer; c-Jun in OptiMEM ….
T1 sequence: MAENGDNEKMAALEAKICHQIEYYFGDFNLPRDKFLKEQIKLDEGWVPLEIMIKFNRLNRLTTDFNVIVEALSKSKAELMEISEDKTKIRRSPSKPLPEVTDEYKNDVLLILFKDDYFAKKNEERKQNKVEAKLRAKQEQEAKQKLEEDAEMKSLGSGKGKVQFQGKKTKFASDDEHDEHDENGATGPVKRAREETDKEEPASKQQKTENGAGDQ

Row | Sequence | binding signal (fold lower affinity than full length)
1 | CTGCTAGCCTCTGGATTTGA [766636 cEt gap-mer] | 50

Each sequence was assayed against T2, P54nrb-HIS (UniProt Q15233) (assay: competition FP). Conditions: 3-10-3 cEt gap-mer; BRET: 1X binding buffer (0.1 M potassium acetate, 20 mM Tris pH 7.5, 1 mM EDTA, 0.01% NP-40), room temperature, 15 min; FP in the same buffer; c-Jun in OptiMEM ….
T2 sequence: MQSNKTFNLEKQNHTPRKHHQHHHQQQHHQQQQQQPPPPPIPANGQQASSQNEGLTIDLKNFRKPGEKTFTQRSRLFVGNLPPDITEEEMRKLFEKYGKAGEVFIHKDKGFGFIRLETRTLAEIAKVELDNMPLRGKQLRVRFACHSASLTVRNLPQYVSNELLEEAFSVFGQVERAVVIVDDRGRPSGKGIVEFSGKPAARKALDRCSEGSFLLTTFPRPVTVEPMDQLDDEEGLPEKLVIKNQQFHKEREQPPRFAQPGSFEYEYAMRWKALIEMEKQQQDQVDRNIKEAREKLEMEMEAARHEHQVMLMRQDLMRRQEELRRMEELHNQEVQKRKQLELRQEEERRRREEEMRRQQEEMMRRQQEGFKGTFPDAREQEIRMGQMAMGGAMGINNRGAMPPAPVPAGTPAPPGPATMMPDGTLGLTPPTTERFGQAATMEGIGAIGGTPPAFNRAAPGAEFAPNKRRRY

Row | Sequence | Kd [nM]
2 | CCAGCGGGTGGACTGT [660923] | 38.3
3 | GTTAAGAAGGCTGTCC [661073] | 260
4 | TCCACAGAGCGGACTG [660965] | 310
5 | GGGAGGAGGACAGCTC [660908] | 4.6
6 | ACCCTGCCACGATGTA [660992] | 95.1
7 | TGAGAAGATCTCCCGG [661103] | 33.6
8 | CCACTGCGCAGGCCAG [660935] | 337
9 | CCCTCCCTCCCGCTAG [661121] | 19.5
10 | CTTCTAGCCACTGGCT [661010] | 326
11 | CTGGGAACTGGTCACC [660899] | 119
12 | AACATGTCTGCCAGGG [660956] | 33
13 | TCAGTCATGGTATAAA [661115] | 86.9
